# Reference: paper PMC8973293
# B1: HuE71-IgG1 (antibody, V domains shown)
# VH: QVQLVQPGDELVKPGASVKLSCKASGYTFTSYWMQWVKQRPGQGLEWIGEINPSNGRTNYNEMFKSKAVLSVDKSVSTAYMQLSSLTAEDTAVYYCALYDGYYAMDYWGQGTLVTVSS
# VL: DIVMTQSPSSLAVSVGERVTMSCKSSQSLLYSSNQKNYLAWYQQKPGQSPKLLIYWASTRESGVPDRFSGSGSGTDFTLTISSVKAEDVALYYCQQYHSYPFTFGQGTKLEIK
# B2: Desferrioxamine-HuE71-IgG1 (antibody, V domains shown)
# VH: B1 VH
# VL: B1 VL
# B3: Desferrioxamine-HuE71-IgG1-Afuco (antibody, V domains shown)
# VH: B1 VH
# VL: B1 VL
# B4: HuE71-IgG1-Afuco (antibody, V domains shown)
# VH: B1 VH
# VL: B1 VL
# Biological target: murine FcγRIV (mouse)
# Experiment: SPR; Biacore T200; analysis of Fc-Fc receptor binding; who was immobilised and the conditions are not given
row,Kd,Binder
1,724 nM,B1
2,539 nM,B2
3,219 nM,B3
4,227 nM,B4

# Biological target: human FcγRIIIa-158V (human)
# Experiment: as above
row,Kd,Binder
1,873 nM,B1
2,664 nM,B2
3,294 nM,B3
4,286 nM,B4
